US20180346594A1
Values belong to the substance of their own block, whether it stands above or below them.

Tests used:
[1] = target: 16C3 antigen (human colorectal and pancreatic carcinoma-associated antigen, CPAA, recognized by the 16C3 antibody) (human); experiment: FACS, AsPC-1 cells, 5 uL
[2] = target: 16C3 antigen (human colorectal and pancreatic carcinoma-associated antigen, CPAA, recognized by the 16C3 antibody) (human); experiment: FACS, HT-29 colorectal cells
[3] = target: 16C3 antigen (human colorectal and pancreatic carcinoma-associated antigen, CPAA, recognized by the 16C3 antibody) (human); experiment: FACS, AsPC-1 pancreatic cells
[4] = target: 16C3 antigen (human colorectal and pancreatic carcinoma-associated antigen, CPAA, recognized by the 16C3 antibody) (human); experiment: FACS, LS174T colorectal cells
[5] = target: 16C3 antigen (human colorectal and pancreatic carcinoma-associated antigen, CPAA, recognized by the 16C3 antibody) (human); experiment: FACS, CFPAC-1 pancreatic cells
[6] = target: 16C3 antigen (human colorectal and pancreatic carcinoma-associated antigen, CPAA, recognized by the 16C3 antibody) (human); experiment: FACS, AsPC-1 cells, 1 ug antibody
[7] = target: 16C3 antigen (human colorectal and pancreatic carcinoma-associated antigen, CPAA, recognized by the 16C3 antibody) (human); experiment: FACS, AsPC-1 cells, 4 ng antibody
[8] = target: 16C3 antigen (human colorectal and pancreatic carcinoma-associated antigen, CPAA, recognized by the 16C3 antibody) (human); experiment: FACS, AsPC-1 cells, 20 ng antibody
[9] = target: 16C3 antigen (human colorectal and pancreatic carcinoma-associated antigen, CPAA, recognized by the 16C3 antibody) (human); experiment: FACS, AsPC-1 cells, 0.8 ng antibody
[10] = target: 16C3 antigen (human colorectal and pancreatic carcinoma-associated antigen, CPAA, recognized by the 16C3 antibody) (human); experiment: FACS, AsPC-1 cells, 100 ng antibody
[11] = target: 16C3 antigen (human colorectal and pancreatic carcinoma-associated antigen, CPAA, recognized by the 16C3 antibody) (human); experiment: FACS, AsPC-1 cells, secondary antibody only
[12] = target: 16C3 antigen (human colorectal and pancreatic carcinoma-associated antigen, CPAA, recognized by the 16C3 antibody) (human); experiment: FACS, LS174T cells, secondary antibody only
[13] = target: 16C3 antigen (human colorectal and pancreatic carcinoma-associated antigen, CPAA, recognized by the 16C3 antibody) (human); experiment: FACS, HT-29 colorectal cells, secondary antibody only
[14] = target: 16C3 antigen (human colorectal and pancreatic carcinoma-associated antigen, CPAA, recognized by the 16C3 antibody) (human); experiment: FACS, AsPC-1 pancreatic cells, secondary antibody only
[15] = target: 16C3 antigen (human colorectal and pancreatic carcinoma-associated antigen, CPAA, recognized by the 16C3 antibody) (human); experiment: FACS, LS174T colorectal cells, secondary antibody only
[16] = target: 16C3 antigen (human colorectal and pancreatic carcinoma-associated antigen, CPAA, recognized by the 16C3 antibody) (human); experiment: FACS, CFPAC-1 pancreatic cells, secondary antibody only
[17] = target: 16C3 antigen (human colorectal and pancreatic carcinoma-associated antigen, CPAA, recognized by the 16C3 antibody) (human); experiment: FACS, CFPAC-1 cells, secondary antibody only

% AsPC-1 Cells Stained [1]: 81.4%
mfi [1]: 34 mfi
% Cell Staining [2]: 91%
mfi [2]: 78 mfi
% Cell Staining [3]: 69.9%
mfi [3]: 36 mfi
% Cell Staining [4]: 40.6%
mfi [4]: 59 mfi
% Cell Staining [5]: 96.2%
mfi [5]: 323 mfi
% AsPC-1 Cells Stained [6]: 89.5%
mfi [6]: 138 mfi
% AsPC-1 tumor cell binding [7]: 4.26%
MFI [7]: 52 MFI
% AsPC-1 tumor cell binding [8]: 47.9%
MFI [8]: 69 MFI
% AsPC-1 tumor cell binding [9]: 1.28%
MFI [9]: 615 MFI
% AsPC-1 tumor cell binding [10]: 61.7%
MFI [10]: 228 MFI
Substance: 16C3 mAb (murine monoclonal antibody, IgG1 heavy chain, kappa light chain)

% AsPC-1 Cells Stained [11]: 1.01%
% AsPC-1 tumor cell binding [11]: 1.55%
MFI [11]: 70 MFI
mfi [11]: 8 mfi
% LS174T tumor cell binding [12]: 1.63%
MFI [12]: 43 MFI
% Cell Staining [13]: 0.84%
mfi [13]: 10 mfi
% Cell Staining [14]: 2.68%
mfi [14]: 30 mfi
% Cell Staining [15]: 0.94%
mfi [15]: 15 mfi
% Cell Staining [16]: 0.83%
mfi [16]: 14 mfi
Substance: Goat anti-Mouse IgG-FITC control (fluorescein-labelled goat anti-mouse antibody, secondary reagent alone)

% AsPC-1 tumor cell binding [11]: 2.05%
MFI [11]: 59 MFI
% binding to LS174T cells [12]: 3.49%
mfi [12]: 33 mfi
% binding to CFPAC-1 cells [17]: 2.1%
mfi [17]: 20 mfi
Substance: Rabbit anti-Human IgG-FITC control (secondary reagent alone) (antibody)
